The record followed here is US20110129412A1.

As usually defined, the Kd is the concentration at which binding is half-saturated. Lower therefore signals tighter binding.

For test [1], the target named is human CD20 (human) (UniProt P11836). Kind of test: FACS titration on SB cells expressing CD20, 3 h at 4 C, nonlinear fit of geometric mean fluorescence.
The target is the same in test [2]. The test can be described thus: cell-based or functional assay.

Chain of human CD20 (human) (P11836 whole entry): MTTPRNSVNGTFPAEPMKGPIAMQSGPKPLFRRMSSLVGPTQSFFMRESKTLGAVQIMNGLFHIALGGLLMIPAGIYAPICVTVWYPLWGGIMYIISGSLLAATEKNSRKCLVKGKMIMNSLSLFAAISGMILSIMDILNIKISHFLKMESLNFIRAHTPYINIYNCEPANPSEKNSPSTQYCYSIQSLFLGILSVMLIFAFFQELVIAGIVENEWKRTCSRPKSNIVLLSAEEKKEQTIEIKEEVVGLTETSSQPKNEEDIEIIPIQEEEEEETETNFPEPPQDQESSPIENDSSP

In test [1], “Rituxan (Rituximab), Genentech (antibody)” yielded a dissociation constant (Kd) of 8.1 nM. Besides, in test [2], the % Lysis Daudi 0.001 µg/ml ADCC came to 33%, the % Lysis Daudi 1 µg/ml ADCC stood at 95%, the % Lysis Raji 0.001 µg/ml ADCC was 16% and the % Lysis Raji 1 µg/ml ADCC is 62%. Moreover, in test [2], the % Lysis Ramos 0.001 µg/ml ADCC stood at 5%, the % Lysis Ramos 1 µg/ml ADCC turned out to be 78%, the EC50 Daudi CDC worked out at 1.56 µg/mL and the EC50 Raji CDC amounted to 0.31 µg/mL. In test [2], the EC50 Ramos Apoptosis Alamar Blue was 0.222 µg/mL, the EC50 Ramos Apoptosis Annexin V turned out to be 2.59 µg/mL, the EC50 Ramos Apoptosis Cell Titer Glo was 0.576 µg/mL and the EC50 Ramos Apoptosis WST-1 was found to be 0.0326 µg/mL. Further, the EC50 Ramos CDC in test [2] came out at 0.43 µg/mL.
